Assay results as given in paper doi:10.1101/2021.04.19.439022, “Bacteriophage λ RexA and RexB Functions Assist the Transition from Lysogeny to Lytic Growth”.

B1: OR1-OR2 (dsDNA)
DNA 1: AGATCTACCGGTAGAGCTT
DNA 2: TAAGCTCTACCGGTAGATC
modifications: m5C at position 8 of upper strand and position 10 of lower strand
B2: OR1-OR2 scrambled (dsDNA)
DNA 1: AGATCTACCGGTAGAGCTT
DNA 2: TAAGCTCTACCGGTAGATC

Target: T1, RexA (Bacteriophage lambda, UniProt P68924 1-279)
T1 sequence: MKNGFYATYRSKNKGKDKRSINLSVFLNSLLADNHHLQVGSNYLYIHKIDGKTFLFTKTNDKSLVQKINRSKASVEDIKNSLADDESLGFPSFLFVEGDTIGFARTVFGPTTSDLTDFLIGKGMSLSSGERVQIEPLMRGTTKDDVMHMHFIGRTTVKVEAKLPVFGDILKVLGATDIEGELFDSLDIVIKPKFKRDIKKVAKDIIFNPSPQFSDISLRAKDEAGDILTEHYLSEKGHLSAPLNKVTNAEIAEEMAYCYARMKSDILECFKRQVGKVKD
Assay: filter binding; 2 mM Mg2+; Filter binding: 25 mM MES pH 6.5, 2.0 mM MgCl2, 0.1 mM DTT, 0.01 mM EDTA, 40 ug/mL BSA, 30 C, 10 min, 14.5 nM unlabeled + 0.5 nM labeled DNA; SEC: Superdex 200
Conditions: protein: recombinant, tags: C-terminal 6xHis (pET21b), chain copies: 2, 5' overhang 1 nt at both ends

Binder	binding result	binding result (label: 5'-32P)
B1	binds	
B2		binds
